Test [1] concerns the target T1, recombinant Src unique domain (biotinylated probe) (murine (n-Src), UniProt P12931 5-83 (human entry), biotinylated).
T1 construct: also called unique domain of Src; Src unique domain protein; not shown: GST tag of vector pGEX2T'6; purified as GST fusion protein
Description: blot of ND2-GST fusion proteins probed with biotinylated Src unique domain, streptavidin-HRP.

Test [2] has as its target non-receptor tyrosine kinase Src, native protein in brain lysates, PSD preparations, hippocampal neurons and … (rat, UniProt Q9WUD9 2-536, limits assumed). Nature of the test: GST pull-down from PSD preparations, immunoblot.
Test [3] addresses T2, GluR2, native protein in PSD preparations (rat, UniProt P19491 22-883, limits assumed).
T2 construct: also called AMPA receptor complex
Description: co-immunoprecipitation from PSD preparations with anti-GluR2, probed with anti-ND2.

In test [4] the target is T3, potassium channel Kv3.1, native protein in PSD preparations (rat, UniProt P25122 1-585).
T3 sequence (looked up): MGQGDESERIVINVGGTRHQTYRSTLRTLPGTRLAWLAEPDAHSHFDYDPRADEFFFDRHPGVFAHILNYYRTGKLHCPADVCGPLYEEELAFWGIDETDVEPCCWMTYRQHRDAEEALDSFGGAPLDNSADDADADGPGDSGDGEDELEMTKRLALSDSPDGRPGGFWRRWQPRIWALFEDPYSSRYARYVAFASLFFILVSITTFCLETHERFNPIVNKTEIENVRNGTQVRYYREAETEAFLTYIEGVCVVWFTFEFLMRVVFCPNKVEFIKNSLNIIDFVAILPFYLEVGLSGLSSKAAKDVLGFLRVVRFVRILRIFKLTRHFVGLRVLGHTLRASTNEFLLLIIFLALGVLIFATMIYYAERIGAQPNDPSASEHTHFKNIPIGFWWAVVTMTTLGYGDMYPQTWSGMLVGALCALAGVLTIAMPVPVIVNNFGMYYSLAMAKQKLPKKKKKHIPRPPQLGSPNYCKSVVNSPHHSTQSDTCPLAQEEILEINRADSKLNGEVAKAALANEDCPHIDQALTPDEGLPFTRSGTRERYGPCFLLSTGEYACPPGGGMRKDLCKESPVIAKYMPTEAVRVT
Description: co-immunoprecipitation from PSD preparations with anti-Kv3.1, probed with anti-ND2.

Ends that are not written are not given here.

The text below walks through data of US20070059320A1 (HOSPITAL FOR SICK CHILDREN, published 2007).

T2 sequence (P19491 22-883 limits assumed): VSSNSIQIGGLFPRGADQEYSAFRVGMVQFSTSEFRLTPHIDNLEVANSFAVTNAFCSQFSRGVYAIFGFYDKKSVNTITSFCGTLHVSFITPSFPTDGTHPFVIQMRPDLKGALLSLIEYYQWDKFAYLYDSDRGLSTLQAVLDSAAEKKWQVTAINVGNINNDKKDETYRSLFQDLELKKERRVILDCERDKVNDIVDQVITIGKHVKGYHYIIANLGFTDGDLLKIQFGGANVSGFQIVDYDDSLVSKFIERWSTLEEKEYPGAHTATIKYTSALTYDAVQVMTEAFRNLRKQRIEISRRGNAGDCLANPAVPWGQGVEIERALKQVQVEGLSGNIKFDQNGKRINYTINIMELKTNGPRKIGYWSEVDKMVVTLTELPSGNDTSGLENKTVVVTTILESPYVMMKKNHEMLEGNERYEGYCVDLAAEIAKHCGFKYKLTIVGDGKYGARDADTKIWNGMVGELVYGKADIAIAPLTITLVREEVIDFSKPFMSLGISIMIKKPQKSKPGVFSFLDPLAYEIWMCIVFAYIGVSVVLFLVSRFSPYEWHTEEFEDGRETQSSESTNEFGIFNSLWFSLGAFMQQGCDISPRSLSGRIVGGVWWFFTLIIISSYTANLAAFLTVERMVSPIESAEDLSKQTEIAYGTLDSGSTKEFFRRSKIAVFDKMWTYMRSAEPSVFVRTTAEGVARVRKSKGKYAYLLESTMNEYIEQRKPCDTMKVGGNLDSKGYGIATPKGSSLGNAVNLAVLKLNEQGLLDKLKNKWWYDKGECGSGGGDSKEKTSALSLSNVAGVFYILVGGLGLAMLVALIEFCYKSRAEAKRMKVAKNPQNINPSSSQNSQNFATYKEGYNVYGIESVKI

B1: ND2.2-GST fusion protein (amino acids 189-238 of human ND2) (other)
chain: WMMAVLPYNPNMTILNLTIYIILTTTAFLLLNLNSSTTTLLLSRTWNKLT
modifications: also: fused to GST tag of pGEX vector, sequence and linker not given here
notes: not shown: glutathione S-transferase (GST) tag of vector pGEX4T-1
On to B1, for which the binding result in test [1] and in test [2] was “no binding” throughout.

B2: ND2.3-GST fusion protein (amino acids 1-188 of human ND2) (other)
chain: MNPLAQPVIYSTIFAGTLITALSSHWFFTWVGLEMNMLAFIPVLTKKMNPRSTEAAIKYFLTQATASMILLMAILFNNMLSGQWTMTNTTNQYSSLMIMMAMAMKLGMAPFHFWVPEVTQGTPLTSGLLLLTWQKLAPISIMYQISPSLNVSLLLTLSILSIMAGSWGGLNQTQLRKILAYSSITHMG
notes: as for B1
Turning to B2, the binding result in test [2] was “no binding”.

B3: NADH dehydrogenase subunit 2 (ND2), native protein in brain lysates, PSD preparations, hippocampal neurons and tissues (other, UniProt P11662 1-346, looked up)
chain: MNPITLIIIYFTILMGPVITMSSSNLLLMWVGLEMSLLAIIPLLANKKSPRSTEAATKYFLTQATASMIILLVIILNYKQSGMWTLQQQTNNMLLNMMLISLAMKLGLAPFHYWLPEVTQGIPLHIGLILLTWQKIAPLSILYQFYQLLNPTITTILAISSVFVGAWGGLNQTQTRKIMAYSSIAHMGWMTAILPYNPNLTLLNLTIYILLTVPMFITLMTNSATTINTLSLAWNKTPMILTMTSIILLSLGGLPPLTGFLPKWAIISELLKNNCSTLSTLMAIMALLSLFFYTRLIYSMSLTMFPTNNNSKMISHHHQNPKHNFILPTLTVLSTLTLPLSSQLIT
As for B3, the binding result in test [3] and in test [4] was “no binding” throughout.
